# According to publication PMC8589032 (Journal of molecular biology, 2018):
# Where a chain is given by its changes, count along the chain named. Names and notes keep the numbering of the source.
# B1: REV1 UBM1-UBM2 (C958S C977A) (domain or fragment, human, UniProt Q9UBZ9-1 933-1040, looked up)
# chain: PSPSQLDQSVLEALPPDLREQVEQVSAVQQAESHGDKKKEPVNGANTGILPQPVGTVLLQIPEPQESNSDAGINLIALPAFSQVDPEVFAALPAELQRELKAAYDQRQ
# B2: REV1 UBM1-UBM2 (residues 933-1040, wild-type) (domain or fragment, human, UniProt Q9UBZ9-1 933-1040, looked up)
# chain: B1 chain with S26C, A45C
# Tests used:
# [1] = molecular target: T1, ubiquitin (UniProt P0CG48 1-76); experiment: ITC
# [2] = molecular target: T1, ubiquitin; experiment: NMR titration
Binder,Kd [1] [µM],binding result [2]
B1,18.7 ± 1.6,
"ESNSDAGINLIALPAFSQVDPEVFAALPAELQRELKAAYDQRQ (domain or fragment, human, UniProt Q9UBZ9-1 998-1040, looked up) [REV1 UBM2 (residues E998 to Q1040)]",14.9 ± 3,
B2,,binds
